Drawing on article PMC8399836, this text covers stoichiometry N for one substance.

For the assay, the target named is individual G6PD protein (g6pd region of the fused G6PD::6PGL enzyme from Giardia lamblia) (Giardia lamblia). The assay is described as follows: SEC; size exclusion chromatography (gel filtration) of the purified individual G6PD protein; one peak with G6PD activity; column and buffer not told in the text shown. Background: In gel filtration, larger molecules generally elute earlier.

Usually stoichiometry N stands for a count of units in the complex or per binding partner. With “individual G6PD protein (g6pd region of the fused G6PD::6PGL enzyme from Giardia lamblia) (domain or fragment)”, the stoichiometry N came out at 2.
